The values below are quoted from earlier work in article PMC5811428.

The target in this data set is C5aR (Homo sapiens) (UniProt P21730).
UniProt P21730, sequence (P21730 whole entry): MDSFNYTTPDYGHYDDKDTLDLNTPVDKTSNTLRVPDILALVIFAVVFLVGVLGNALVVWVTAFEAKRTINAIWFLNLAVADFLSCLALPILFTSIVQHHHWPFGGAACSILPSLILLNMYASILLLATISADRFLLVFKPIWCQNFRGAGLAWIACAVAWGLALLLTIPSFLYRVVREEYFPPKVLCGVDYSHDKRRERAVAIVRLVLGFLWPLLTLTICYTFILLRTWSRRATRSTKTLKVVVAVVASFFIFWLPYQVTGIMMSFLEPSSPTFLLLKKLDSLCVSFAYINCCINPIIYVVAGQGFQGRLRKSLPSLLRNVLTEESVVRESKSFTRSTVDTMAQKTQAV

With “hC5a C-terminal peptide CT peptide (from UniProt P01031)”, the Kd was 150 µM.

The term Kd denotes the free concentration of one partner at which half of the binding sites on the other are occupied at equilibrium, for simple one-to-one binding.
